Where no end group is shown, it is not given here. [ ]: non-standard residue; d: D form. 4Pal = N[C@@H](Cc1ccncc1)C(=O)O; Dab = NCC[C@H](N)C(=O)O; Aib = CC(C)(N)C(=O)O
T1: human GIP receptor (hGIP-R) (Homo sapiens, UniProt P48546)
T1 construct: expressed in transfected cells; host or cells: HEK-293 clonal cell line
T1 sequence (P48546 22-466): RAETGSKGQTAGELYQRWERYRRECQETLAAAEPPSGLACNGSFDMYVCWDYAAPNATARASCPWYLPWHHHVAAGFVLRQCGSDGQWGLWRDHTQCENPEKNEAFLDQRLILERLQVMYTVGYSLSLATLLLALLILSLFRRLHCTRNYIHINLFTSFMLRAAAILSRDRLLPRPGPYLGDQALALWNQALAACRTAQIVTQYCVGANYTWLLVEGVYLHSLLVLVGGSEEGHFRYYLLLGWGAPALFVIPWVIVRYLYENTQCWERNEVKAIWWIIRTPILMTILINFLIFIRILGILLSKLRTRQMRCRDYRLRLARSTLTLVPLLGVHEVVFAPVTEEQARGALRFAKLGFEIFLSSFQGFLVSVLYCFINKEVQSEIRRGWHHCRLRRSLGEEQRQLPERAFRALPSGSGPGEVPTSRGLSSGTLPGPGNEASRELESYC

B1: Example 3 compound (glucagon analog agonist, SEQ ID NO:5) (peptide)
peptide: HS[Dab](Ac)GTFTSDYSKYLD[Aib]RRAQAFVK[4Pal]LLST-OH
modifications: N-terminus assumed
SMILES: CC(=O)NCC[C@H](NC(=O)[C@H](CO)NC(=O)[C@@H](N)Cc1c[nH]cn1)C(=O)NCC(=O)N[C@H](C(=O)N[C@@H](Cc1ccccc1)C(=O)N[C@H](C(=O)N[C@@H](CO)C(=O)N[C@@H](CC(=O)O)C(=O)N[C@@H](Cc1ccc(O)cc1)C(=O)N[C@@H](CO)C(=O)N[C@@H](CCCCN)C(=O)N[C@@H](Cc1ccc(O)cc1)C(=O)N[C@@H](CC(C)C)C(=O)N[C@@H](CC(=O)O)C(=O)NC(C)(C)C(=O)N[C@@H](CCCNC(=N)N)C(=O)N[C@@H](CCCNC(=N)N)C(=O)N[C@@H](C)C(=O)N[C@@H](CCC(N)=O)C(=O)N[C@@H](C)C(=O)N[C@@H](Cc1ccccc1)C(=O)N[C@H](C(=O)N[C@@H](CCCCN)C(=O)N[C@@H](Cc1ccncc1)C(=O)N[C@@H](CC(C)C)C(=O)N[C@@H](CC(C)C)C(=O)N[C@@H](CO)C(=O)N[C@H](C(=O)O)[C@@H](C)O)C(C)C)[C@@H](C)O)[C@@H](C)O
B2: Example 4 compound (glucagon analog agonist, SEQ ID NO:6) (peptide)
peptide: HS[Dab](Ac)GTFTSDYSKYLD[Aib]RRAQQFVK[4Pal]LLST-OH
modifications: N-terminus assumed
SMILES: CC(=O)NCC[C@H](NC(=O)[C@H](CO)NC(=O)[C@@H](N)Cc1c[nH]cn1)C(=O)NCC(=O)N[C@H](C(=O)N[C@@H](Cc1ccccc1)C(=O)N[C@H](C(=O)N[C@@H](CO)C(=O)N[C@@H](CC(=O)O)C(=O)N[C@@H](Cc1ccc(O)cc1)C(=O)N[C@@H](CO)C(=O)N[C@@H](CCCCN)C(=O)N[C@@H](Cc1ccc(O)cc1)C(=O)N[C@@H](CC(C)C)C(=O)N[C@@H](CC(=O)O)C(=O)NC(C)(C)C(=O)N[C@@H](CCCNC(=N)N)C(=O)N[C@@H](CCCNC(=N)N)C(=O)N[C@@H](C)C(=O)N[C@@H](CCC(N)=O)C(=O)N[C@@H](CCC(N)=O)C(=O)N[C@@H](Cc1ccccc1)C(=O)N[C@H](C(=O)N[C@@H](CCCCN)C(=O)N[C@@H](Cc1ccncc1)C(=O)N[C@@H](CC(C)C)C(=O)N[C@@H](CC(C)C)C(=O)N[C@@H](CO)C(=O)N[C@H](C(=O)O)[C@@H](C)O)C(C)C)[C@@H](C)O)[C@@H](C)O
B3: Example 1 compound (glucagon analog agonist, SEQ ID NO:3) (peptide)
peptide: HSQGTFTSDYSKYLD[Aib]RRAQQFVK[4Pal]LLST-OH
modifications: N-terminus assumed
SMILES: CC(C)C[C@H](NC(=O)[C@H](Cc1ccncc1)NC(=O)[C@H](CCCCN)NC(=O)[C@@H](NC(=O)[C@H](Cc1ccccc1)NC(=O)[C@H](CCC(N)=O)NC(=O)[C@H](CCC(N)=O)NC(=O)[C@H](C)NC(=O)[C@H](CCCNC(=N)N)NC(=O)[C@H](CCCNC(=N)N)NC(=O)C(C)(C)NC(=O)[C@H](CC(=O)O)NC(=O)[C@H](CC(C)C)NC(=O)[C@H](Cc1ccc(O)cc1)NC(=O)[C@H](CCCCN)NC(=O)[C@H](CO)NC(=O)[C@H](Cc1ccc(O)cc1)NC(=O)[C@H](CC(=O)O)NC(=O)[C@H](CO)NC(=O)[C@@H](NC(=O)[C@H](Cc1ccccc1)NC(=O)[C@@H](NC(=O)CNC(=O)[C@H](CCC(N)=O)NC(=O)[C@H](CO)NC(=O)[C@@H](N)Cc1c[nH]cn1)[C@@H](C)O)[C@@H](C)O)C(C)C)C(=O)N[C@@H](CC(C)C)C(=O)N[C@@H](CO)C(=O)N[C@H](C(=O)O)[C@@H](C)O
B4: Example 2 compound (glucagon analog agonist, SEQ ID NO:4) (peptide)
peptide: HSQGTFTSDYSKYLD[Aib]RRAQAFVK[4Pal]LLST-OH
modifications: N-terminus assumed
SMILES: CC(C)C[C@H](NC(=O)[C@H](Cc1ccncc1)NC(=O)[C@H](CCCCN)NC(=O)[C@@H](NC(=O)[C@H](Cc1ccccc1)NC(=O)[C@H](C)NC(=O)[C@H](CCC(N)=O)NC(=O)[C@H](C)NC(=O)[C@H](CCCNC(=N)N)NC(=O)[C@H](CCCNC(=N)N)NC(=O)C(C)(C)NC(=O)[C@H](CC(=O)O)NC(=O)[C@H](CC(C)C)NC(=O)[C@H](Cc1ccc(O)cc1)NC(=O)[C@H](CCCCN)NC(=O)[C@H](CO)NC(=O)[C@H](Cc1ccc(O)cc1)NC(=O)[C@H](CC(=O)O)NC(=O)[C@H](CO)NC(=O)[C@@H](NC(=O)[C@H](Cc1ccccc1)NC(=O)[C@@H](NC(=O)CNC(=O)[C@H](CCC(N)=O)NC(=O)[C@H](CO)NC(=O)[C@@H](N)Cc1c[nH]cn1)[C@@H](C)O)[C@@H](C)O)C(C)C)C(=O)N[C@@H](CC(C)C)C(=O)N[C@@H](CO)C(=O)N[C@H](C(=O)O)[C@@H](C)O

Tests used:
[1] = biological target: T1, human GIP receptor (hGIP-R); test: cAMP functional activity assay, hGIP-R HEK-293 cells; format: cell-based
Protocol: After a sixty-minute incubation at room temperature, the resulting increase in intracellular cAMP is quantitatively determined using a cAMP Dynamic 2 HTRF Assay Kit (62AM4PEJ; CisBio; Codolet, FR). Briefly, cAMP levels within the cell are detected by adding a cAMP-d2 conjugate in cell lysis buffer (10 μl) followed by an anti-cAMP-Eu3+-Cryptate antibody, also in cell lysis buffer (10 μl). […] A relative EC50 value and percent top (Emax) are derived by non-linear regression analysis using the percent maximal response vs. the concentration of peptide added, fitted to a four-parameter logistic equation.

[2] = biological target: T2, human GLP-1 receptor (hGLP-1R) (Homo sapiens, UniProt P43220); test: cAMP functional activity assay, hGLP-1R HEK-293 cells; format: cell-based; conditions: HEK293; percent of response to 10 nM GLP-1(7-36)NH2; mean ± SEM
T2 construct: expressed in transfected cells; host or cells: HEK-293 clonal cell line

in vivo = conditions: male, Yucatan miniature swine, pig, sc, 10 ug/kg
Protocol: 1. […] The compounds and an analog as an internal standard are extracted from […] by antibody or protein precipitations. The intact mass of the compounds are detected by a Q Exactive® Orbitrap® Mass Spectrometer (Thermo Fisher Scientific; Waltham, Mass.). 2. […] Blood is collected at pre-dose, 2, 5, 10, 15, 20, 25, 30, 45, 60, 75, 90, 120 and 150 minutes post-dose, and plasma is obtained for pharmacokinetic characterization. […] Blood is collected at pre-dose, 2, 5, 10, 15, 20, 25, 30, 45, 60, 75, 90, 120 and 150 minutes postdose, and plasma is obtained for pharmacokinetic characterization.

[3] = biological target: human GIP receptor (human) (UniProt P48546); test: cell-based or functional assay
human glucagon receptor [4] = biological target: T3, human glucagon receptor (human, UniProt P47871 26-477); test: cell-based or functional assay
human GLP-1 receptor [5] = biological target: T4, human GLP-1 receptor (human, UniProt P43220 24-463); test: cell-based or functional assay
human GLP-1 receptor [6] = biological target: T4, human GLP-1 receptor; test: cell-based or functional assay; remark: listed apart in the source
rat glucagon receptor [7] = biological target: T5, rat glucagon receptor (rat, UniProt P30082 27-485); test: cell-based or functional assay
human glucagon receptor [8] = biological target: T3, human glucagon receptor; test: SPA competition with 125I-labelled glucagon on hGCGR membranes
Description: (§1) Plates are sealed, mixed on a plate shaker, and read with a MicroBeta™ scintillation counter (PerkinElmer) after 12 hr of settling time at room temperature.

rat glucagon receptor [9] = biological target: T5, rat glucagon receptor; test: SPA competition with 125I-labelled glucagon on rGCGR membranes
Protocol: as §1
The SPA receptor binding assay and calculation of the results are carried out as described in the hGCGR binding assay.

human glucagon receptor [10] = biological target: T3, human glucagon receptor; test: cell-based or functional assay; remark: listed apart in the source

T3 sequence (P47871 26-477): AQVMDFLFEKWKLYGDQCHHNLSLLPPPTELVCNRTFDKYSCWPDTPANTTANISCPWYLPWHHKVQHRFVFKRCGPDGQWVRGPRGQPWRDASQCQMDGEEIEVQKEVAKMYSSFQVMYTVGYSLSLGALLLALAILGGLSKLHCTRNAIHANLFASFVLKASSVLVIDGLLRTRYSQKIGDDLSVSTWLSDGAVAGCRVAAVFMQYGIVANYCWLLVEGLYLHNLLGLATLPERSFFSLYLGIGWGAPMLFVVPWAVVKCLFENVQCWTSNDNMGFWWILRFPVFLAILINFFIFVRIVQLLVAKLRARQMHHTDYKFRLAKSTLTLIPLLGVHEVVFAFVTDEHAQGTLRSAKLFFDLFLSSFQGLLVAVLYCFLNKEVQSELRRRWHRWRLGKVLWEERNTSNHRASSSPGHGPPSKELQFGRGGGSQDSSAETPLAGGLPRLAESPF
T5 sequence (P30082 27-485): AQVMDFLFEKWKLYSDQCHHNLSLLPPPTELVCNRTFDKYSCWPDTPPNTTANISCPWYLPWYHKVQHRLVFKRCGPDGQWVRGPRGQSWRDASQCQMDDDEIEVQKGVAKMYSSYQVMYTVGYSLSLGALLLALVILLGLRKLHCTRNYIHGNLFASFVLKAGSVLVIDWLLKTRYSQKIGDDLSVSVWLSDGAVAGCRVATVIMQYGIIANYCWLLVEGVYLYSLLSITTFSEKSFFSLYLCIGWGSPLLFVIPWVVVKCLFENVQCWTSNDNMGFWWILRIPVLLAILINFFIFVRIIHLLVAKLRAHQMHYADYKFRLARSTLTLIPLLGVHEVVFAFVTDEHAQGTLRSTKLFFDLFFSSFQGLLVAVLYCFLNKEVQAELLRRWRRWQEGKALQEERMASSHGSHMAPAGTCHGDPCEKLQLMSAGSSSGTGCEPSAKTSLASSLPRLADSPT
T2 sequence (P43220 24-463): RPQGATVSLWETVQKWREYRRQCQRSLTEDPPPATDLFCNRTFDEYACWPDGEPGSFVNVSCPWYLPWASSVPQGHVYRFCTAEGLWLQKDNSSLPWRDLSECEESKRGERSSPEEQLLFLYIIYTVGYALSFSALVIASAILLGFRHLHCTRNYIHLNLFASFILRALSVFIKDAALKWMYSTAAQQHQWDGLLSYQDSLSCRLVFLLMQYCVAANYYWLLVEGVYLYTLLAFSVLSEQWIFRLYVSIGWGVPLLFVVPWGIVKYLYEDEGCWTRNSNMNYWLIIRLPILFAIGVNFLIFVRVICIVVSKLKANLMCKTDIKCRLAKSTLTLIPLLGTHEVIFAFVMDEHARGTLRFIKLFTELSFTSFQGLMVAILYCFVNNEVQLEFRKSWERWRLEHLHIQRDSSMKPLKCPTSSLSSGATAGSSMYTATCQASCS

Molecule	Emax at 9.95 µM ([1]; HEK293, percent of response to 10 nM GIP(1-42)NH2, Examples at 9.95 μM, read-out: Emax hGIPR)	EC50 ([1]; in the presence of FBS and BSA, read-out: cAMP EC50 hGIPR)	Emax [2]	AUC(0-inf) (in vivo; AUC0-inf)	CL/F (in vivo; CL/F)	Emax (% of response to 10 nM GIP(1-42)NH2), at 9.95 µM [3]	cAMP EC50 [3]	cAMP EC50 (human glucagon receptor [4])	cAMP EC50 (human GLP-1 receptor [5])	Emax (% of response to 10 nM GLP-1(7-36)NH2) (human GLP-1 receptor [6])	cAMP EC50 (rat glucagon receptor [7])	Ki (human glucagon receptor [8])	Ki (rat glucagon receptor [9])	Emax (% of response to 1 nM Glucagon) (human glucagon receptor [10])
CC(C)C[C@H](NC(=O)[C@H](Cc1ccncc1)NC(=O)[C@H](CCCCN)NC(=O)[C@@H](NC(=O)[C@H](Cc1ccccc1)NC(=O)[C@H](C)NC(=O)[C@H](CCC(N)=O)NC(=O)[C@H](C)NC(=O)[C@H](CCCNC(=N)N)NC(=O)[C@H](CCCNC(=N)N)NC(=O)C(C)(C)NC(=O)[C@H](CC(=O)O)NC(=O)[C@H](CC(C)C)NC(=O)[C@H](Cc1ccc(O)cc1)NC(=O)[C@H](CCCCN)NC(=O)[C@H](CO)NC(=O)[C@H](Cc1ccc(O)cc1)NC(=O)[C@H](CC(=O)O)NC(=O)[C@H](CO)NC(=O)[C@@H](NC(=O)[C@H](Cc1ccccc1)NC(=O)[C@@H](NC(=O)CNC(=O)[C@H](CCC(N)=O)NC(=O)[C@H](CO)NC(=O)[C@@H](N)Cc1c[nH]cn1)[C@@H](C)O)[C@@H](C)O)C(C)C)C(=O)N[C@@H](CC(C)C)C(=O)N[C@@H](CO)C(=O)N[C@H](C(=O)O)[C@@H](C)O [Example 2]	< 5%	> 9950 nM	109 ± 4%	1.92 ng·h/mL	87 mL/min/kg									
B1						< 5%	> 9950 nM	0.0108 nM	1300 nM	109%	0.188 nM	2.08 nM	21.7 nM	
B2						< 5%	> 9950 nM	0.00888 nM	1270 nM	100%	0.083 nM	1.2 nM	13.5 nM	98%
B3						< 5%	> 9950 nM	0.0143 nM	181 nM	105%	0.135 nM	3.18 nM	17.4 nM	103%
B4						< 5%	> 9950 nM	0.0265 nM	250 nM	109%	0.204 nM	6.87 nM	34.2 nM	
